Assay results as given in PMC9082959, “Mechanism of Assembly of the Non-Covalent Spectrin Tetramerization Domain from Intrinsically Disordered Partners” (Journal of molecular biology, 2013).

T1: β16β17 (erythrocyte β-spectrin residues 1898–2083), wild type (human, UniProt P11277 1898-2083)
T1 construct: erythrocyte β-spectrin, human, residues 1898-2083 (β16 plus the incomplete 17th domain); synthetic gene (GenScript) in a modified pRSETA plasmid; source: E. coli C41(DE3), purified (Ni2+ agarose, thrombin cleavage, gel filtration)
T1 sequence (looked up): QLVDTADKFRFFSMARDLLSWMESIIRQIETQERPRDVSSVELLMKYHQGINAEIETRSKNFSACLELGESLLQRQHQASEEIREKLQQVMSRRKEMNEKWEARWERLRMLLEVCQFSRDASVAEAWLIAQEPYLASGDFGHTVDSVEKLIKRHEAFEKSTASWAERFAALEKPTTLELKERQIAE


What was measured:
[1] = biological target: T1, β16β17 (erythrocyte β-spectrin residues …); assay: ITC; β16β17 at 25–50 μM in the cell titrated with 15–20 injections to 2–2.5 eq of α0α1; one-site binding model; PBS (50 mM sodium phosphate, 150 mM NaCl, pH 7.04), 25 °C; mutants only against the wild-type partner; conditions: both partners purified
[2] = biological target: T1, β16β17 (erythrocyte β-spectrin residues …); assay: as above; conditions: both partners purified; remark: listed apart in the source

Ka [1] [M⁻¹] | Ka [2] [M⁻¹] | Binder
1.2e+06 | – | α0α1 E85A (domain or fragment, human, UniProt P02549 2-163, looked up, mutant of m1; also called E26A; source: E. coli C41(DE3), purified (Ni2+ agarose, thrombin cleavage, gel filtration)) EQFPKETVVESSGPKVLETAEEIQARRQEVLTRYQSFKERVAERGQKLEDSYHLQVFKRDADDLGKWIMEKVNILTDKSYEDPTNIQGKYQKHQSLEAEVQTKSRLMSELEKTREERFTMGHSAHEETKAHIEELRHLWDLLLELTLEKGDQLLRALKFQQY
– | 1.3e+06 | α0α1 L91A (domain or fragment, human, UniProt P02549 2-163, looked up, mutant of m1; also called L32A; source: E. coli C41(DE3), purified (Ni2+ agarose, thrombin cleavage, gel filtration)) EQFPKETVVESSGPKVLETAEEIQERRQEVATRYQSFKERVAERGQKLEDSYHLQVFKRDADDLGKWIMEKVNILTDKSYEDPTNIQGKYQKHQSLEAEVQTKSRLMSELEKTREERFTMGHSAHEETKAHIEELRHLWDLLLELTLEKGDQLLRALKFQQY
– | 1e+06 | α0α1 Q88A (domain or fragment, human, UniProt P02549 2-163, looked up, mutant of m1; also called Q29A; source: E. coli C41(DE3), purified (Ni2+ agarose, thrombin cleavage, gel filtration)) EQFPKETVVESSGPKVLETAEEIQERRAEVLTRYQSFKERVAERGQKLEDSYHLQVFKRDADDLGKWIMEKVNILTDKSYEDPTNIQGKYQKHQSLEAEVQTKSRLMSELEKTREERFTMGHSAHEETKAHIEELRHLWDLLLELTLEKGDQLLRALKFQQY
220000 | – | α0α1 E103G (domain or fragment, human, UniProt P02549 2-163, looked up, mutant of m1; also called E44G; source: E. coli C41(DE3), purified (Ni2+ agarose, thrombin cleavage, gel filtration)) EQFPKETVVESSGPKVLETAEEIQERRQEVLTRYQSFKERVAGRGQKLEDSYHLQVFKRDADDLGKWIMEKVNILTDKSYEDPTNIQGKYQKHQSLEAEVQTKSRLMSELEKTREERFTMGHSAHEETKAHIEELRHLWDLLLELTLEKGDQLLRALKFQQY
810000 | – | α0α1 E103A (domain or fragment, human, UniProt P02549 2-163, looked up, mutant of m1; also called E44A; source: E. coli C41(DE3), purified (Ni2+ agarose, thrombin cleavage, gel filtration)) EQFPKETVVESSGPKVLETAEEIQERRQEVLTRYQSFKERVAARGQKLEDSYHLQVFKRDADDLGKWIMEKVNILTDKSYEDPTNIQGKYQKHQSLEAEVQTKSRLMSELEKTREERFTMGHSAHEETKAHIEELRHLWDLLLELTLEKGDQLLRALKFQQY
900000 | – | α0α1 E99A (domain or fragment, human, UniProt P02549 2-163, looked up, mutant of m1; also called E40A; source: E. coli C41(DE3), purified (Ni2+ agarose, thrombin cleavage, gel filtration)) EQFPKETVVESSGPKVLETAEEIQERRQEVLTRYQSFKARVAERGQKLEDSYHLQVFKRDADDLGKWIMEKVNILTDKSYEDPTNIQGKYQKHQSLEAEVQTKSRLMSELEKTREERFTMGHSAHEETKAHIEELRHLWDLLLELTLEKGDQLLRALKFQQY
4e+06 | – | α0α1 R87G (domain or fragment, human, UniProt P02549 2-163, looked up, mutant of m1; also called R28G; source: E. coli C41(DE3), purified (Ni2+ agarose, thrombin cleavage, gel filtration)) EQFPKETVVESSGPKVLETAEEIQERGQEVLTRYQSFKERVAERGQKLEDSYHLQVFKRDADDLGKWIMEKVNILTDKSYEDPTNIQGKYQKHQSLEAEVQTKSRLMSELEKTREERFTMGHSAHEETKAHIEELRHLWDLLLELTLEKGDQLLRALKFQQY
830000 | – | α0α1 E85G (domain or fragment, human, UniProt P02549 2-163, looked up, mutant of m1; also called E26G; source: E. coli C41(DE3), purified (Ni2+ agarose, thrombin cleavage, gel filtration)) EQFPKETVVESSGPKVLETAEEIQGRRQEVLTRYQSFKERVAERGQKLEDSYHLQVFKRDADDLGKWIMEKVNILTDKSYEDPTNIQGKYQKHQSLEAEVQTKSRLMSELEKTREERFTMGHSAHEETKAHIEELRHLWDLLLELTLEKGDQLLRALKFQQY
2.29e+06 | – | α0α1 Q95A (domain or fragment, human, UniProt P02549 2-163, looked up, mutant of m1; also called Q36A; source: E. coli C41(DE3), purified (Ni2+ agarose, thrombin cleavage, gel filtration)) EQFPKETVVESSGPKVLETAEEIQERRQEVLTRYASFKERVAERGQKLEDSYHLQVFKRDADDLGKWIMEKVNILTDKSYEDPTNIQGKYQKHQSLEAEVQTKSRLMSELEKTREERFTMGHSAHEETKAHIEELRHLWDLLLELTLEKGDQLLRALKFQQY
– | 670000 | α0α1 Y94A (domain or fragment, human, UniProt P02549 2-163, looked up, mutant of m1; also called Y35A; source: E. coli C41(DE3), purified (Ni2+ agarose, thrombin cleavage, gel filtration)) EQFPKETVVESSGPKVLETAEEIQERRQEVLTRAQSFKERVAERGQKLEDSYHLQVFKRDADDLGKWIMEKVNILTDKSYEDPTNIQGKYQKHQSLEAEVQTKSRLMSELEKTREERFTMGHSAHEETKAHIEELRHLWDLLLELTLEKGDQLLRALKFQQY
800000 | – | α0α1 E99G (domain or fragment, human, UniProt P02549 2-163, looked up, mutant of m1; also called E40G; source: E. coli C41(DE3), purified (Ni2+ agarose, thrombin cleavage, gel filtration)) EQFPKETVVESSGPKVLETAEEIQERRQEVLTRYQSFKGRVAERGQKLEDSYHLQVFKRDADDLGKWIMEKVNILTDKSYEDPTNIQGKYQKHQSLEAEVQTKSRLMSELEKTREERFTMGHSAHEETKAHIEELRHLWDLLLELTLEKGDQLLRALKFQQY
3.3e+06 | – | α0α1 T92G (domain or fragment, human, UniProt P02549 2-163, looked up, mutant of m1; also called T33G; source: E. coli C41(DE3), purified (Ni2+ agarose, thrombin cleavage, gel filtration)) EQFPKETVVESSGPKVLETAEEIQERRQEVLGRYQSFKERVAERGQKLEDSYHLQVFKRDADDLGKWIMEKVNILTDKSYEDPTNIQGKYQKHQSLEAEVQTKSRLMSELEKTREERFTMGHSAHEETKAHIEELRHLWDLLLELTLEKGDQLLRALKFQQY
200000 | – | α0α1 Q106G (domain or fragment, human, UniProt P02549 2-163, looked up, mutant of m1; also called Q47G; source: E. coli C41(DE3), purified (Ni2+ agarose, thrombin cleavage, gel filtration)) EQFPKETVVESSGPKVLETAEEIQERRQEVLTRYQSFKERVAERGGKLEDSYHLQVFKRDADDLGKWIMEKVNILTDKSYEDPTNIQGKYQKHQSLEAEVQTKSRLMSELEKTREERFTMGHSAHEETKAHIEELRHLWDLLLELTLEKGDQLLRALKFQQY
– | 6.7e+06 | α0α1 R104A (domain or fragment, human, UniProt P02549 2-163, looked up, mutant of m1; also called R45A; source: E. coli C41(DE3), purified (Ni2+ agarose, thrombin cleavage, gel filtration)) EQFPKETVVESSGPKVLETAEEIQERRQEVLTRYQSFKERVAEAGQKLEDSYHLQVFKRDADDLGKWIMEKVNILTDKSYEDPTNIQGKYQKHQSLEAEVQTKSRLMSELEKTREERFTMGHSAHEETKAHIEELRHLWDLLLELTLEKGDQLLRALKFQQY
1.3e+06 | – | α0α1 Q106A (domain or fragment, human, UniProt P02549 2-163, looked up, mutant of m1; also called Q47A; source: E. coli C41(DE3), purified (Ni2+ agarose, thrombin cleavage, gel filtration)) EQFPKETVVESSGPKVLETAEEIQERRQEVLTRYQSFKERVAERGAKLEDSYHLQVFKRDADDLGKWIMEKVNILTDKSYEDPTNIQGKYQKHQSLEAEVQTKSRLMSELEKTREERFTMGHSAHEETKAHIEELRHLWDLLLELTLEKGDQLLRALKFQQY
– | 58000 | α0α1 F97A (domain or fragment, human, UniProt P02549 2-163, looked up, mutant of m1; also called F38A; source: E. coli C41(DE3), purified (Ni2+ agarose, thrombin cleavage, gel filtration)) EQFPKETVVESSGPKVLETAEEIQERRQEVLTRYQSAKERVAERGQKLEDSYHLQVFKRDADDLGKWIMEKVNILTDKSYEDPTNIQGKYQKHQSLEAEVQTKSRLMSELEKTREERFTMGHSAHEETKAHIEELRHLWDLLLELTLEKGDQLLRALKFQQY
– | 4.4e+06 | α0α1 Y94L (domain or fragment, human, UniProt P02549 2-163, looked up, mutant of m1; also called Y35L; source: E. coli C41(DE3), purified (Ni2+ agarose, thrombin cleavage, gel filtration)) EQFPKETVVESSGPKVLETAEEIQERRQEVLTRLQSFKERVAERGQKLEDSYHLQVFKRDADDLGKWIMEKVNILTDKSYEDPTNIQGKYQKHQSLEAEVQTKSRLMSELEKTREERFTMGHSAHEETKAHIEELRHLWDLLLELTLEKGDQLLRALKFQQY
670000 | – | α0α1 T92A (domain or fragment, human, UniProt P02549 2-163, looked up, mutant of m1; also called T33A; source: E. coli C41(DE3), purified (Ni2+ agarose, thrombin cleavage, gel filtration)) EQFPKETVVESSGPKVLETAEEIQERRQEVLARYQSFKERVAERGQKLEDSYHLQVFKRDADDLGKWIMEKVNILTDKSYEDPTNIQGKYQKHQSLEAEVQTKSRLMSELEKTREERFTMGHSAHEETKAHIEELRHLWDLLLELTLEKGDQLLRALKFQQY
2e+06 | – | α0α1 Q95G (domain or fragment, human, UniProt P02549 2-163, looked up, mutant of m1; also called Q36G; source: E. coli C41(DE3), purified (Ni2+ agarose, thrombin cleavage, gel filtration)) EQFPKETVVESSGPKVLETAEEIQERRQEVLTRYGSFKERVAERGQKLEDSYHLQVFKRDADDLGKWIMEKVNILTDKSYEDPTNIQGKYQKHQSLEAEVQTKSRLMSELEKTREERFTMGHSAHEETKAHIEELRHLWDLLLELTLEKGDQLLRALKFQQY
– | 100000 | α0α1 V101A (domain or fragment, human, UniProt P02549 2-163, looked up, mutant of m1; also called V42A; source: E. coli C41(DE3), purified (Ni2+ agarose, thrombin cleavage, gel filtration)) EQFPKETVVESSGPKVLETAEEIQERRQEVLTRYQSFKERAAERGQKLEDSYHLQVFKRDADDLGKWIMEKVNILTDKSYEDPTNIQGKYQKHQSLEAEVQTKSRLMSELEKTREERFTMGHSAHEETKAHIEELRHLWDLLLELTLEKGDQLLRALKFQQY
